Assay results published in PMC6739322, “The molecular basis of chaperone-mediated interleukin 23 assembly control” (Nature Communications, 2019).

Target: T1, IL-12β (purified alone) (human, UniProt P29460 23-328)
T1 construct: interleukin-12 subunit beta (IL-12β), human; The C-terminal His-tag has a TEV cleavage site and is separated by a GS linker, so residues may be left after cleavage; also called unlabeled IL-12β; source: ExpiCHO, transiently transfected, purified from supernatant (HisTrap, TEV, SEC); not shown: His-tag, C-terminal, cleaved
T1 sequence (looked up): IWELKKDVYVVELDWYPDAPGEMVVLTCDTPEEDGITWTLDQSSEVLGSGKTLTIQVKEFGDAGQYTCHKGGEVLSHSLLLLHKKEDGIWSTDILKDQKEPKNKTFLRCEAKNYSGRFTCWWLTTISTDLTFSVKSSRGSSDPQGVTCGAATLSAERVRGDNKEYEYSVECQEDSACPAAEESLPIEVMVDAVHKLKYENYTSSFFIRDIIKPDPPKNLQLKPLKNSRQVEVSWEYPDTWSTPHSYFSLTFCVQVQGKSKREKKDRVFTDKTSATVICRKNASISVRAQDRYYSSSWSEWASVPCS
Experiment: NMR titration; 1H,15N HSQC of 15N-labelled IL-23α^VVS (100 μM) without and with a two-fold molar excess of unlabeled IL-12β; 10 mM KPi pH 7.5, 298 K
Details: both partners purified

binding result: binds
B1: IL-23α^C14,22V,C54S (purified) (natural protein, human)
chain: RAVPGGSSPAWTQVQQLSQKLVTLAWSAHPLVGHMDLREEGDEETTNDVPHIQSGDGCDPQGLRDNSQFCLQRIHQGLIFYEKLLGSDIFTGEPSLLPDSPVGQLHASLLGLSQLLQPEGHHWETQQIPSLSPSQPWQRLLLRFKILRSLQAFVAVAARVFAHGAATLSP
notes: interleukin-23 subunit alpha (IL-23α), human; The His-tag has a TEV site and is separated by a 2x GS linker, so residues may be left after cleavage; The protein was 15N-labelled for NMR; The internal disulfide C58-C70 is formed; also called IL-23α^VVS; not shown: His-tag, N-terminal, cleaved
